Experimental data from PMC7956722 (Molecules, 2021).
Like-named read-outs stand apart in the source and are kept apart here. Non-standard residues stand in square brackets, D forms with d. Residues, ends and D or L forms follow the SMILES beside them. dPhe(4-Cl) = N[C@H](Cc1ccc(Cl)cc1)C(=O)O; d2Nal = N[C@H](Cc1ccc2ccccc2c1)C(=O)O; dCit = NC(=O)NCCC[C@@H](N)C(=O)O; d3Pal = N[C@H](Cc1cccnc1)C(=O)O

Tests used:
[1] = target: T1, LHRH receptors (membrane receptors of human bladder cancer cells) (Homo sapiens, UniProt P30968); experiment: Ligand competition assay: displacement of [125I][D-Trp6]LHRH by unlabeled peptides; assay type: binding; conditions: for displacement of [125I][D-Trp6]LHRH by unrelated peptides: membrane fractions of human bladder cancer specimens, increasing concentrations, mean of duplicate or triplicate determinations
T1 construct: membrane homogenates of bladder cancer specimens containing 60–150 µg protein were incubated in duplicate; from tissue; host or cells: surgically resected human bladder cancer (transitional cell carcinoma) tissue, crude membrane fractions
T1 sequence (P30968 1-328): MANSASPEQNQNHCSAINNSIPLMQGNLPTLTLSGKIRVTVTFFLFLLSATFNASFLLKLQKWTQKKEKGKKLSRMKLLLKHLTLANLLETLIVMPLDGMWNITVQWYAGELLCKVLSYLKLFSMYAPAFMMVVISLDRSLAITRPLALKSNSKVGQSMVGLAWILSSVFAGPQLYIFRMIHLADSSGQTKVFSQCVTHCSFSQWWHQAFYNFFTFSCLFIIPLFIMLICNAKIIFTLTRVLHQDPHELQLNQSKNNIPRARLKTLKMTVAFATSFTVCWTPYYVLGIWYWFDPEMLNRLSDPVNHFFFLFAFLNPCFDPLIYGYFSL
Experimental: Analysis of the typical displacement of radiolabeled [D-Trp^6] […] Biochemical parameters essential to establish the identity of specific binding sites were also determined.
Each point represents mean of duplicate or triplicate determinations.
The assay was performed as described earlier. […] At the end of the incubation, 125 µL aliquots of suspension were transferred onto the top of 1 mL of ice-cold binding buffer containing 1.5% BSA in microcentrifuge tubes. The tubes were centrifuged at 12,000× g for 3 min at 4 °C. Supernatants were aspirated and the pellet was counted in a gamma counter. Protein concentration was determined by the method of Bradford using a Bio-Rad protein assay kit (Bio-Rad Laboratories, Hercules, CA, USA). The final binding affinities were expressed as IC50 values and were calculated by using the LIGAND-PC computerized curve-fitting program of Munson and Rodbard.

[2] = test system: metastatic bladder cancer; conditions: first-line therapy, cisplatin-based chemotherapy; cited from earlier work
From the text: More than 90% of urothelial tumors originate from the urinary bladder, 8% from the renal pelvis, and 2% from the ureter and urethra. Histologically, the majority (around 90%) of bladder cancer is described as the type of TCC and the rest are squamous cell carcinoma, adenocarcinoma, and rarely, small cell carcinoma. Despite advancements in surgical techniques and chemotherapy, the overall survival in metastatic bladder cancer has not improved over the last 20 years. The first-line therapy is cisplatin-based chemotherapy with the response rate of approximately 50% [[4],[31] ...

bladder carcinogenesis = test system: bladder carcinogenesis; design: method as in PMID 8551710; conditions: cited from earlier work
From the text: The effects of the androgen regulation system and LHRH agonist on bladder carcinogenesis have been investigated in animals [10].

[3] = test system: bladder cancer in nude mice; conditions: Szepeshazi et al., cited from earlier work
From the text: (§1) Our findings are in agreement with the results of Bahk et al. (2008). […] However, there is no information about the role of peptide receptors in bladder carcinogenesis. The signaling pathways have the potential to be an important area of bladder cancer research, leading to the development of effective therapeutic approaches.

various human cancers = conditions: trials completed or terminated; cited from earlier work
From the text: as §1

[4] = test system: LHRH-receptor-positive models of human ovarian, mammary, endometrial, and prostatic cancers; conditions: cited from earlier work
AN-152 = target: T2, AN-152 (Homo sapiens, pGlu1, D-Lys6 linked through glutaric acid spacer to doxorubicin, C-terminal amide); experiment: radioligand competition
T2 chain: QHWSYKLRPG

[D-Lys6]LHRH = target: T3, [D-Lys6]LHRH (Homo sapiens, pGlu1, D-Lys6, C-terminal amide); experiment: radioligand competition
T3 chain: QHWSYKLRPG

[125I][D-Trp6]LHRH [5] = target: T4, [125I][D-Trp6]LHRH (Homo sapiens, pGlu1, D-Trp6, C-terminal amide, 125I); experiment: radioligand competition (patient 3)
T4 chain: QHWSYWLRPG

[125I][D-Trp6]LHRH [6] = target: T4, [125I][D-Trp6]LHRH; experiment: radioligand competition (patient 7)
[125I][D-Trp6]LHRH [7] = target: T4, [125I][D-Trp6]LHRH; experiment: radioligand competition (patient 8)
[125I][D-Trp6]LHRH [8] = target: T4, [125I][D-Trp6]LHRH; experiment: radioligand competition (patient 6)
[125I][D-Trp6]LHRH [9] = target: T4, [125I][D-Trp6]LHRH; experiment: radioligand competition (patient 12)
[125I][D-Trp6]LHRH [10] = target: T4, [125I][D-Trp6]LHRH; experiment: radioligand competition (patient 18)
[125I][D-Trp6]LHRH [11] = target: T4, [125I][D-Trp6]LHRH; experiment: radioligand competition (patient 14)
[125I][D-Trp6]LHRH [12] = target: T4, [125I][D-Trp6]LHRH; experiment: radioligand competition (patient 10)
[125I][D-Trp6]LHRH [13] = target: T4, [125I][D-Trp6]LHRH; experiment: radioligand competition (patient 19)
[125I][D-Trp6]LHRH [14] = target: T4, [125I][D-Trp6]LHRH; experiment: radioligand competition (patient 22)
[125I][D-Trp6]LHRH [15] = target: T4, [125I][D-Trp6]LHRH; experiment: radioligand competition, Scatchard (mean of 10 bladder cancer specimens)

## CC(C)C[C@H](NC(=O)[C@@H](CCCCN)NC(=O)[C@H](Cc1ccc(O)cc1)NC(=O)[C@H](CO)NC(=O)[C@H](Cc1c[nH]c2ccccc12)NC(=O)[C@H](Cc1cnc[nH]1)NC(=O)[C@@H]1CCC(=O)N1)C(=O)N[C@@H](CCCNC(=N)N)C(=O)N1CCC[C@H]1C(=O)NCC(N)=O [[D-Lys^6]LHRH]
[1]; read-out: Receptor binding potency (IC50)
  IC50: 0.98 nM

## N.N.[Cl][Pt][Cl] [cisplatin]
[2]
  response rate: approximately 50%

## somatostatin: unrelated peptide
[1]
  displacement of [125I][D-Trp6]LHRH by unrelated peptides: did not displace the radioligand

## growth hormone-releasing hormone (GHRH): unrelated peptide
[1]
  displacement of [125I][D-Trp6]LHRH by unrelated peptides: did not displace the radioligand

## vasoactive intestinal peptide (VIP): unrelated peptide
[1]
  displacement of [125I][D-Trp6]LHRH by unrelated peptides: did not displace the radioligand

## CC(C)C(=O)Nc1ccc([N+](=O)[O-])c(C(F)(F)F)c1 [flutamide]
Bladder carcinogenesis
  effect on bladder carcinogenesis: suppressed the LHRH-induced promotion of carcinogenesis

## COc1cccc2c1C(=O)c1c(O)c3c(c(O)c1C2=O)C[C@@](O)(C(=O)COC(=O)CCCC(=O)NCCCC[C@@H](NC(=O)[C@H](Cc1ccc(O)cc1)NC(=O)[C@H](CO)NC(=O)[C@H](Cc1c[nH]c2ccccc12)NC(=O)[C@H](Cc1c[nH]cn1)NC(=O)[C@@H]1CCC(=O)N1)C(=O)N[C@@H](CC(C)C)C(=O)N[C@@H](CCCNC(=N)N)C(=O)N1CCC[C@H]1C(=O)NCC(N)=O)C[C@@H]3O[C@H]1C[C@H](N)[C@H](O)[C@H](C)O1 [AN-152]
[1]; compared with free peptide carrier [D-Lys6]LHRH, human bladder cancer membranes
  binding affinity relative to free carrier [D-Lys6]LHRH (in words): only slightly lower binding affinity to specific LHRH receptors than the free peptide carrier
[1]; displacement of [125I][D-Trp6]LHRH, human bladder cancer membranes
  binding to LHRH receptors (in words): could effectively bind to LHRH receptors at low nanomolar concentration
[3]; bladder cancer in nude mice
  effect compared with DOX: greater effects than DOX
[3]; nude mice
  growth inhibition of bladder cancer: inhibits powerfully the growth of the bladder cancer in nude mice
  toxicity compared with DOX: lesser toxicity
Various human cancers
  outcome of clinical trials: some of these studies did not achieve their primary endpoint
[4]; human ovarian, mammary, endometrial, prostatic cancers xenografted into nude mice
  inhibition of tumor growth in vivo versus respective radicals: much more effective in vivo than their respective radicals in inhibiting tumor growth
[4]; nude mice
  toxicity versus respective radicals: less toxic

## human growth hormone (hGH): unrelated peptide
[1]
  displacement of [125I][D-Trp6]LHRH by unrelated peptides: did not displace the radioligand

## CC(=O)N[C@H](Cc1ccc2ccccc2c1)C(=O)N[C@H](Cc1ccc(Cl)cc1)C(=O)N[C@H](Cc1cccnc1)C(=O)N[C@@H](CO)C(=O)N[C@@H](Cc1ccc(O)cc1)C(=O)N[C@H](CCCNC(N)=O)C(=O)N[C@@H](CC(C)C)C(=O)N[C@@H](CCCNC(=N)N)C(=O)N1CCC[C@H]1C(=O)N[C@H](C)C(N)=O [Cetrorelix] (Ac-[d2Nal][dPhe(4-Cl)][d3Pal]SY[dCit]LRP[dA]-NH2)
[1]
  IC50: 0.86 nM

## epidermal growth factor: unrelated peptide
[1]
  displacement of [125I][D-Trp6]LHRH by unrelated peptides: did not displace the radioligand

B1: LHRH receptor type I (protein)
chain: MANSASPEQNQNHCSAINNSIPLMQGNLPTLTLSGKIRVTVTFFLFLLSATFNASFLLKLQKWTQKKEKGKKLSRMKLLLKHLTLANLLETLIVMPLDGMWNITVQWYAGELLCKVLSYLKLFSMYAPAFMMVVISLDRSLAITRPLALKSNSKVGQSMVGLAWILSSVFAGPQLYIFRMIHLADSSGQTKVFSQCVTHCSFSQWWHQAFYNFFTFSCLFIIPLFIMLICNAKIIFTLTRVLHQDPHELQLNQSKNNIPRARLKTLKMTVAFATSFTVCWTPYYVLGIWYWFDPEMLNRLSDPVNHFFFLFAFLNPCFDPLIYGYFSL
AN-152
  IC50: 1.39 nM
[D-Lys6]LHRH
  IC50: 0.98 nM
[125I][D-Trp6]LHRH [5]
  Kd: 5.76 nM
[125I][D-Trp6]LHRH [6]
  Kd: 4.94 nM
[125I][D-Trp6]LHRH [7]
  Kd: 6.26 nM
[125I][D-Trp6]LHRH [8]
  Kd: 6.85 nM
[125I][D-Trp6]LHRH [9]
  Kd: 3.61 nM
[125I][D-Trp6]LHRH [10]
  Kd: 4.38 nM
[125I][D-Trp6]LHRH [11]
  Kd: 4.92 nM
[125I][D-Trp6]LHRH [12]
  Kd: 5.02 nM
[125I][D-Trp6]LHRH [13]
  Kd: 3.83 nM
[125I][D-Trp6]LHRH [14]
  Kd: 4.31 nM
[125I][D-Trp6]LHRH [15]
  Kd: 4.98 nM
